The Immune Epitope Database (IEDB)

The sequences below were run against HLA-A*02:01 (assay: IEDB peptide-MHC binding, purified MHC/direct/fluorescence; filed as Kd, often an IC50 or EC50 that approximates it; ≥ and ≤ were set here for values at or beyond the usual limits of such assays). Conditions: source organism: Mycobacterium tuberculosis H37Rv.
For AIYDTMQYV, the Kd was no more than 1 nM. In the case of ALDEGLLPV, the Kd is reported as no more than 1 nM. With ALLGGLRPV the Kd was no more than 1 nM. AMAGSIDLL was tested, and the Kd was 4 nM. Work on GMFANRWII yielded a Kd of 27 nM. HLDDVGFLV was tested, and the Kd was no more than 1 nM. For KLQERLAKL, the Kd was 18 nM. LLYDGSFAV gave a Kd of no more than 1 nM. Work on SLIDLLHKI yielded a Kd of no more than 1 nM. For SLRNWIATL, the Kd was 66 nM. In the case of SLWKDGAPL, the Kd is reported as 5 nM. In the case of WLYPGAQNL, the Kd is reported as no more than 1 nM. With YLLADTFTV the Kd was no more than 1 nM. YLPDPTVGV showed a Kd of no more than 1 nM. Sequence YVYPDNLPV has a Kd of 2 nM.
